In the DeepSol protein solubility set:

Assay: soluble on expression in E. coli; label from the status in PepcDB or PDB records

Sequence | soluble on expression in E. coli
AAQEKVVKLKIVQTSDVHGNYYPYNFITRKDWQGSLARIYAFVEKEREQYKENLILLDNGDILQGQPTAYYYNYIDTVSPHLCAEMMNYMKYDAGNMGNHDVETGRAVFDRWINTCDFPVLGANIIDISTGEPHLPPYKVMERDGVKIVILGMITPAIPAWLSENLWKGLRFDDMEETARKWMKIIREKENPDLMIGLFHAGQEAFKMSGKYNENASLSVAKNVPGFDIVLMGHDHARECKKVMNVAGDSVLVIDPASNGIVLSNIDVTLKLKDGKVRSKDIKGVLTETKDYGISEDFMKNFAPQYDTVRNFVSK | not soluble
GMATNSSTEQSLTKKVWNLATTLAGQGIGFTDYITQLTYLLFLKMDAENVEMFGEESAIPTGYQWADLIAFDGLDLVKQYEETLKLLSELDNLIGTIYTKAQNKIDKPVYLKKVITMIDEEQWLIMDGDVKGAIYESILEKNGQDKKSGAGQYFTPRPLIQAMVDCINPQMGETVCDPACGTGGFLLTAYDYMKGQSASKEKRDFLRDKALHGVDNTPLVVTLASMNLYLHGIGTDRSPIVCEDSLEKEPSTLVDVILANPPFGTRPAGSVDINRPDFYVETKNNQLNFLQHMMLMLKTGGRAAVVLPDNVLFEAGAGETIRKRLLQDFNLHTILRLPTGIFYAQGVKANVLFFSKGQPTKEIWFYDYRTDIKHTLATNKLERHHLDDFVSCYNNRVEIYDAENNPQGRWRKYPVDEIIARDKTSLDITWIKPGGEVDDRSLAEL | soluble
SKIADPAFLRRLGYKIEFKPLSLTDYQALWMSLAKDYQMTLVPEFFETLSQLHRDNDVAYFPCLPKDLLGISRDILVFEGKEKIVSSDILTRAWGLYFTVDE | soluble
MSLTQDYELVVKGVRNFENKVAVTVALRDKKRFDGEIFDLDISLDRVEGAALEFYEAAARMRIRQVFLDVAAGLCVGDEQSPEKRPIILEAQNVWITYKGKLPGRITGSLKTPPTALRSEGHHHHHH | not soluble
MSLQTQDIIRRSGTNSLTPPPQVRDHQEPVAKLIDVTTCIGCKACQVACSEWNDIRDEVGHNVGVYDNPADLTAKSWTVMRFSEVEDEESGKLEWLIRKDGCMHCADPGCLKACPSEGAIIQYANGIVDFQSEHCIGCGYCIAGCPFDVPRMNKDDNRVYKCTLCVDRVGVGQEPACVKTCPTGAIHFGTKESMKEVAAGRVAELKTRGFDNAGLYDPAGVGGTHVMYVLHHADKPQLYHGLPENPTISPTVTFWKGIWKPLAAVGFAATFAASIFHYVGVGPNRVEEEEEDDETTDPTPSETVAKAPEQTTSERSDEGETRK | not soluble
MATTKPYRVLLYYMYTTIENPEEFAAEHLEFCNSLELKGRILVAKEGINGTCSGTVEQTEKYMEAMNNDPRFDGIVFKIDEADGHAFKKMHVRPRPELVTLRLEDDINPHEITGKYLEPKDFYEAMKQEDTVIIDARNDYEFDLGHFKGAIKPDIESFRELPDWIRENKEVLEGKKILTYCTGGIRCEKFSGWLVREGYEDVSQLHGGIVTYGKDPEVQGELWDGQCYVFDERIAVPVNQKEHVIVGKDHFTGEPCERYVNCANPECNKKILCSEENEAKYLRACSHECRVSPRNRYVIQHELTEEQVAAALEQIEAGKLEHHHHHH | not soluble
MSLYQLEDDSLMLHNDLYQINMAESYWNDNIHEKMAVFDLYFRKMPFNSGYAVFNGLKRVIDFIEHFGFSESDLEYLKSIGYKDDFLSYLKDLKFTGSIRSMQEGELCFGNEPLLRVEAPLIQAQLIETILLNIVNFHTLITTKASRIRQIASNDKLMEFGTRRAQEIDAALWGARAAYIGGFDSTSNVRAGKLFGIPVSGTHAHAFVQTYGDEYVAFKKYAERHKNCVFLVDTFHTLKSGVPNAIKVAKELGDKINFVGIRLDSGDIAYLSKEARRMLDEAGFTETKIIASNDLDEETITSLKAQGAKVDSWGVGTKLITGYDQPALGAVYKLVAIENEEGSYSDRIKLSNNAEKVTTPGKKNVYRIINKKTGKAEGDYITLENENPYDEQPLKLFHPVHTYKMKFIKSFEAIDLHHNIYENGKLVYQMPTEDESREYLAQGLQSIWDENKRFLNPQEYPVDLSKACWDNKHKRIFEVAEHVKEMEEDNEEGHHHHHH | soluble
MPIHHAIVHLIEKKPDGTPAVLHARDAELGDSQAIENLLADLNESYNAKNKAWGFFQGESGAYPFSGWLGEYLEGDRDFVGFSREAVEHLQKLMEESNLSTGGHILFAHYQQGMTDYLAIALLHHSEGVAVNESLEVTPSRHLDLGQLHLAARINISEWRNNKQSKQYISFIKGKGGKKVSDYFRDFIGCQEGVDSPSETRTLLKAFSDFVESEDMAEEQAREKTETLVDYATSQARIGEPMTLDALSELMDDQQPRAFYDYIRNKDYGLSPEIPADKRTLNQFRRFTGRAEGLSISFEAHLLGSKVEYDEERDMLIIRQLPTQLKDQLKRRKDLEHHHHHH | not soluble
MGSDKIHHHHHHGCSDVNQLLGNEESVDYKSTRRGDPLSIPPDLTQANNDPRYKAPASGTATYSQFQQQGLQQQASAGQNTNVLPERADMRVERDGDLRWLVIERPPEQLFPKVVDFWTDTGFTVSVNNPQAGIIETDWAENRAKIPESWLRQVLGSVLETAWDSGEREKFRTRVERVNGHTEIYITHNQMLEKRVGSDGGQVQWTHGKEDPGLNAAMLARLMVYLGTDVDAARKLVAQAEAAPQAPKVQSVRAEGAMLVVDESFDRAWRRVGVALDSGGFAVDDRDRSAGEYFVRYVDTDTGAQNEQPGFFSRLFSSDKKAQAPQYRIRLTGSGTQTQVTVLDANGQRDSSATAQRMLSVLKDKMV | not soluble
MSLRTTDIRVRDLYFEYEDFRYRTPIKFGGVALGRVTLLNVRMTVESAAGKAATGFGSMPLGNVWAYPSRLLTYDQTLGAMRFLASRIADGYRLCGLSGHPIDITHQLEPELLLAGNDFTAIHRPSDPVPKLAVLVVASAFDAALHDAYGKLHGLNCFRTYTREFLPDDLGHYLGAEFNGLHLDDFITHEPKPSMPLYHLVGALDPITPEDVTQPVGDGLPEHLAEWITRDGLTHLKIKLNGDDLGWDVERCVRINAVAEDAQRARGVTTWWYSLDFNERCQNVGYLIEFLQKLRERTPAGYDRVQYVEQPTARDLNAHPENKMHAAAKLKPVVIDESLLDLESLKLSMEMGYTGVAFKACKGQTQTLLLAAAAQKYGLFRCVQDLTCVGASLIHSAGLAAHIPGVAAIESNGRQYCPTANVAWDAKFPGVFTITGGSMNTALLNGVGLGAVSEGHHHHHH | soluble
MTTNDTYEATYAIPMHCENCVNDIKACLKNVPGINSLNFDIEQQIMSVESSVAPSTIINTLRNCGKDAIIRGAGKPNSSAVAILETFQKYTIDQKKDTAVRGLARIVQVGENKTLFDITVNGVPEAGNYHASIHEKGDVSKGVESTGKVWHKFDEPIECFNESDLGKNLYSGKTFLSAPLPTWQLIGRSFVISKSLNHPENEPSSVKDYSFLGVIARSAGVWENNKQVCACTGKTVWEERKDALANNIK | soluble
MKHVPIRMCVACRRRRPKGELLRILVTEEGFVIDPSGKRPGRGAYVCPDSPECRSEKRLRRFAGAKARALAEALAAYLGGEDGQGKDLPAG | soluble
MSLDDERTQVLLKRDSEVFLHQAMSTPCLDTLDAAEGIYIQDATGKKYMDFHGNNVHQLGYGHPHVIKRVQEQIAKLPFSPRRFTNETAIECAEKLTQICGGELNRVLFAPGGTSAVGMALKLARHITGNYKVVSLWDSFHGASLDAISVGGEACFRQGMGPLMAGVERIPPAVSYRGAFPVADGSDVHYADYLEYVIEKEGGVGAFIAEAVRNTDVQVPSKAYWKRIREICDKHNVMLIIDDIPNGMGRSGEWFTYQAYDIEPDMLCIGKGLGGGLVPIAAMVTKDKYNTAEQISMGHYTHEKSPIGCAAALATMEAIEQDGLLDKVKADSQFMREKLLEMKAKYPVIGDVRGIGMLWGIELVTDHESKARAYDEAEAVLYQCLNNGVSFKVSQGNVIQLSPPLIITREQLTEALAIFEEAIAKVCKEGHHHHHH | not soluble
